The nature of this data set: protein stability index of a GFP-peptide fusion (GPS, HEK-293T) (PSI 1-6); higher = more stable.
The mark [1] stands for this setting: treatment: DMSO, c terminus: a fixed tail appended.
[2] abbreviates: treatment: MLN4924 1 uM, 8 h, c terminus: a fixed tail appended.

± gives the standard deviation.
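Also: 24-mer peptide tiles fused after GFP, lentivirally expressed, FACS-sorted into six equal bins by GFP/DsRed ratio, decoded by Illumina sequencing, PSI is the read-weighted mean bin number.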

On to MQCPVIAVNSGGPLESIDHSVTGF [ALG2], for which the protein stability index under setting [1] turned out to be 2.83 ± 0.42 and the protein stability index under setting [2] is 3.26 ± 0.3.
In the case of IVTLRHVLAAKERRCGELKRKLGL [TPD52L3], the protein stability index reads like this: under setting [1], 2.2 ± 0.11; under setting [2], 2.18 ± 0.13.
As for MPLREGSSFQDLLGDALAGPPRAP [HES6], the protein stability index by setting is: under setting [1], 3.86 ± 0.34; under setting [2], 4.05 ± 0.4.
Regarding EYDDDDSAASTSFQPQPVQPQQGY [ZNF207], the protein stability index is, setting by setting: under setting [1], 5.32 ± 0.21; under setting [2], 5.37 ± 0.26.
For the sequence ENILSFMSYDEISQLRLVCKRMDL [FBXO28], the protein stability index under setting [1] is 2.32 ± 0.21 and the protein stability index under setting [2] was found to be 2.35 ± 0.28.
Consider RKKTLVPGPPGSSRPVKGQVVTVH [FKBP8], for which the protein stability index reads like this: under setting [1], 3.53 ± 0.31; under setting [2], 3.46 ± 0.2.
The matching figures for FPWIDAIMTQLRQEGWIHHLARHA [CRY1]: 2.5 ± 0.46 and 2.96 ± 0.8.
For TQVLEDSEDSFCRRHPGLGKAFPS [TRAF3IP2], the protein stability index turned out to be 4.17 ± 0.35 under setting [1] and 4.12 ± 0.39 under setting [2].
Regarding IWLDNLHCTGNEATLAACTSNGWG [LOXL2], the protein stability index reads like this: under setting [1], 2.18 ± 0.31; under setting [2], 2.27 ± 0.3.
On to RTIYHMFIAGLCVFIISTLAIDFI [SOAT2], for which the protein stability index is, setting by setting: under setting [1], 3.14 ± 0.56; under setting [2], 2.96 ± 0.67.
For AARAAGRDVAAEAVARSPKRPAWG [POMT2], in that order: 4.1 ± 0.29 and 4.29 ± 0.51.
For KRGPSSRSGGPPPKKSAPSAVARS [RBMY1A1], the protein stability index reads like this: under setting [1], 4.47 ± 0.12; under setting [2], 4.78 ± 0.39.
Regarding HALSGHAKVKPFDPKITCKQECLI [TPH1], the protein stability index amounted to 2.13 ± 0.27 under setting [1] and 2.12 ± 0.19 under setting [2].
In the case of TVNALEIELQAQHSMRNSLESTLA [KRT36], the protein stability index under setting [1] was 3.38 ± 0.31 and the protein stability index under setting [2] was 3.38 ± 0.29.
In the case of SRKPSLKGNREDSARMSAGLPGPE [PLEKHN1], the protein stability index was found to be 4.85 ± 0.35 under setting [1] and 4.87 ± 0.2 under setting [2].
As for KALLYLPIAPEVEDPEENPYGPPP [RBBP5], the protein stability index came to 3.94 ± 0.31 under setting [1] and 4.07 ± 0.42 under setting [2].
MDTSHQPLLPAPPKTPMDGADCGI [LYSMD4]: the protein stability index runs as follows: under setting [1], 5.04 ± 0.2; under setting [2], 5.09 ± 0.33.
The sequence NNSWIRKNSTMVNSEDIFLLLCLK [TRIM43] had a protein stability index under setting [1] of 2.84 ± 0.42 and a protein stability index under setting [2] of 2.23 ± 0.43.
The matching figures for LSDKSCQSFISWTGDGWEFKLADP [ETS2]: 2.49 ± 0.22 and 2.59 ± 0.36.
Regarding TRRSSYEDSSLPSINALLQAEVLS [HNF4A], the protein stability index is 3.13 ± 0.22 under setting [1] and 3.15 ± 0.31 under setting [2].
As for GGTSWTAYSLNKIHAYNLGTNAWE [KLHDC10], the protein stability index amounted to 2.12 ± 0.34 under setting [1] and 2.08 ± 0.3 under setting [2].
As to RAEKEACQREKELPAAVHPFHFV [ZBED2], the protein stability index was found to be 4.87 ± 0.39 (treatment: DMSO, c terminus: native) and 4.8 ± 0.34 (treatment: MLN4924 1 uM, 8 h, c terminus: native).
For the sequence LKAEELLLKIHEVSTVSHADADCF [CASP6], the protein stability index came to 3.03 ± 0.15 under setting [1] and 3.14 ± 0.28 under setting [2].
AVLAASSPYFHDQVLLKGMTSISL [ZBTB22]: the protein stability index runs as follows: under setting [1], 2.7 ± 0.32; under setting [2], 2.47 ± 0.34.
For YEIEIQAEDGGAYLATAKVLITVE [PCDHGA10], in that order: 2.96 ± 0.39 and 2.89 ± 0.91.
With FGNRIKRVKLISNKGTETDNDPSC [PHTF1], the protein stability index under setting [1] came to 4.06 ± 0.29 and the protein stability index under setting [2] is 4.05 ± 0.42.
Consider MDGRMEAATRGGSHLQAAAQTPPR [SCNN1D], for which the protein stability index by setting is: under setting [1], 4.92 ± 0.39; under setting [2], 4.93 ± 0.061.
FRALAPMYYRGSAAAIIVYDITKE [RAB22A] gave a protein stability index under setting [1] of 2.27 ± 0.36 and a protein stability index under setting [2] of 2.16 ± 0.54.
For KYIHRMMQIEFIKQGSMNFRFIPV [TRAF3IP2], in that order: 3.659 ± 0.005 and 2.21 ± 1.1.

The values are drawn from the supplement of paper PMC10567573.
